# Results reported in paper PMC6373949, “Expression optimization, purification, and functional characterization of cholesterol oxidase from Chromobacterium sp. DS1” (PLoS ONE, 2019).
# Substrate: CC(C)CCC[C@@H](C)[C@H]1CC[C@H]2[C@@H]3CC=C4C[C@@H](O)CC[C@]4(C)[C@H]3CC[C@]12C
# Experiment: purified protein
# Assay type: biochemical, Chromobacterium sp. DS-1
# Conditions: 0.1 M potassium phosphate pH 7, 25°C, cholesterol 0-1 mM
protein,measurement,value
"cholesterol oxidase from Chromobacterium sp. DS1 (ChO) (Chromobacterium sp. DS-1) (protein, synthetic gene in pET24b(+) NdeI-BamHI; 6xHis tag (N-terminal), no tag removal told; E. coli Rosetta-gami2(DE3); native enzyme 58 kDa) GRLTCSQPNNFPAEIPLYKQSFKNWAGDIKVDDVWTCAPRSADEVVKVANWAKDNGYKVRARGMMHNWSPLTLAAGVSCPAVVLLDTTRYLTAMSIDASGPVAKVTAQAGITMEALLTGLEKAGLGVTAAPAPGDLTLGGVLAINGHGTAIPAKGERRLAGASYGSISNLVLSLTAVVYDKASGAYALRKFARNDPQIAPLLAHVGRSLIVEATLQAAPNQRLRCQSWFNIPYGEMFAAAGSGGRTFASYLDSAGRVEAIWFPFTSNPWLKVWTVTPNKPLFSRQTDKPFNYPFSDNLPDEVTDLANKILSLGDGKLTPAFGKAQFAAASAGLVATASWDLWGWSKNLLLYVKPTTLRVTANGYAVLTRRENVQRVLNEFVTFYQARVQAYQQQGRYPMNGPVEIRVTGLDDPSEAALSGGVAPALSAIRPRPDHPEWNVAVWLDILTLPGTPYANQFYREIEQWIEANFNGSYAAVRPEWSKGWGYTDQAAWADSAMLQTTIPNAFRAGQPAAANWDAAKAALAAYDPYRLFSSPLLDSLGL",Km,31 µM
